Assay results taken from publication PMC2958111.

Biological target: VEGF receptor 2 (UniProt P35968)
Test: ELISA; VEGFR1 or VEGFR2 (200 ng/well) covalently attached with ethyl-carbodiimide to an amino-acid-coated 96-well plate; VEGF-A (200 ng/ml) applied alone or mixed with heparin, HS or porcine ocular fluid, 4°C overnight; washed with ice-cold PBS; bound VEGF-A measured with components of a human VEGF ELISA kit; values relative to controls (%)

Sequence of UniProt P35968 (P35968 20-764): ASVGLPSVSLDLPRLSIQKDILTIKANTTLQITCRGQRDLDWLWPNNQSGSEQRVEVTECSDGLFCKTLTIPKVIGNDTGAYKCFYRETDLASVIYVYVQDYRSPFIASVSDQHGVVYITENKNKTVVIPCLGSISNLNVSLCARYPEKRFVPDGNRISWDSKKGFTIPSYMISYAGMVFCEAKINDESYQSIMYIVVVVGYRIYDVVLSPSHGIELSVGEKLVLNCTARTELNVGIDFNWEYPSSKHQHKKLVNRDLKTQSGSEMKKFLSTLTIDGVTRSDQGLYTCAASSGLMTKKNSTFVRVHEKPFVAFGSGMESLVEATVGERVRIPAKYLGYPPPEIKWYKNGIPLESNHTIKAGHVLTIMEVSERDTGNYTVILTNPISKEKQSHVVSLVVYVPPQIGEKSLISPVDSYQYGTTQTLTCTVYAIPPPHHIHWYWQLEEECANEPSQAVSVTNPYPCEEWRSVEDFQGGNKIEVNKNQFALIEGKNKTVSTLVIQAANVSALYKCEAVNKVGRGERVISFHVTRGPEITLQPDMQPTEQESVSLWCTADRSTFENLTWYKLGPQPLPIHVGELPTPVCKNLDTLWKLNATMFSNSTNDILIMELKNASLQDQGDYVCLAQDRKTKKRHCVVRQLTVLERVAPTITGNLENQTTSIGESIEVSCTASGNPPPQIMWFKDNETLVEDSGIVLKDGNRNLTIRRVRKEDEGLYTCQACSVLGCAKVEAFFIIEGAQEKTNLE

Row | Substance | percent inhibition of binding by 1,000 µg/ml of HS from bovine kidney | percent inhibition of binding by porcine ocular fluid (63.2 µg/ml of HS) | percent reduction of binding with 1,000 µg/ml soluble heparin
1 | vascular endothelial growth factor-A, VEGF165 isoform (ligand) | 88.1% | 85.7% | 59.8%
2 | vascular endothelial growth factor-A, VEGF121 isoform (ligand) |  |  | 9.4%
